In article PMC7954794 (2021) one finds screen value data, which are given here for five variants.

First the molecules themselves.
B1: S. cerevisiae Abp1 (full length; SH3 domain 535-592 mutated) / Hua2 (parent complex)
chain 1: MALEPIDYTTHSREIDAEYLKIVRGSDPDTTWLIISPNAKKEYEPESTGSSFHDFLQLFDETKVQYGLARVSPPGSDVEKIIIIGWCPDSAPLKTRASFAANFAAVANNLFKGYHVQVTARDEDDLDENELLMKISNAAGARYSIQTSSKQQGKASTPPVKKSFTPSKSPAPVSKKEPVKTPSPAPAAKISSRVNDNNDDDDWNEPELKERDFDQAPLKPNQSSYKPIGKIDLQKVIAEEKAKEDPRLVQKPTAAGSKIDPSSDIANLKNESKLKRDSEFNSFLGTTKPPSMTESSLKNDDDKVIKGFRNEKSPAQLWAERKAKQNSGNAETKAEAPKPEVPEDEPEGEPDVKDLKSKFEGLAASEKEEEEMENKFAPPPKKSEPTIISPKPFSKPQEPVKAEEAEQPKTDYKKIGNPLPGMHIEADNEEEPEENDDDWDDDEDEAAQPPLPSRNVASGAPVQKEEPEQEEIAPSLPSRNSIPAPKQEEAPEQAPEEEIEEEAEEAAPQLPSRSSAAPPPPPRRATPEKKPKENPWATAEYDYDAAEDNELTFVENDKIINIEFVDDDWWLGELEKDGSKGLFPSNYVSLGN
chain 2: MQQTKFGKMYLDHDSVVEYSEDEIVEADRITLGYKKRLSMIENQMRHLLEDFSLDVQQIEPILADLQKYYDAFLQLLQKRNKSLQCKRSTHQPVPSPMNSQTSTNAKVNLSGKLMKFQLNSVQKFDEENILRILQNKIEFEHYFQIDKGKKQKVLLLAVYQCLNGPTRLHKVLNIEGIIHNNSIRTILGKQVSSSKWTVFLYDVKLVLLAHRQDVPNLETSKMIVRYGDLFPCALYFKDHTAY

The variants in this assay derive from B1. The assay is described as follows: DHFR protein-fragment complementation in yeast (Abp1-DHFR F[1,2] x partner-DHFR F[3]), deep mutational scanning, second methotrexate selection vs reference; S. cerevisiae, DHFR-PCA selection in liquid with methotrexate at 30 C, two 72 h selections (the score uses the second); reference = the pre-selection culture.
As to chain 1 MALEPIDYTTHSREIDAEYLKIVRGSDPDTTWLIISPNAKKEYEPESTGSSFHDFLQLFDETKVQYGLARVSPPGSDVEKIIIIGWCPDSAPLKTRASFAANFAAVANNLFKGYHVQVTARDEDDLDENELLMKISNAAGARYSIQTSSKQQGKASTPPVKKSFTPSKSPAPVSKKEPVKTPSPAPAAKISSRVNDNNDDDDWNEPELKERDFDQAPLKPNQSSYKPIGKIDLQKVIAEEKAKEDPRLVQKPTAAGSKIDPSSDIANLKNESKLKRDSEFNSFLGTTKPPSMTESSLKNDDDKVIKGFRNEKSPAQLWAERKAKQNSGNAETKAEAPKPEVPEDEPEGEPDVKDLKSKFEGLAASEKEEEEMENKFAPPPKKSEPTIISPKPFSKPQEPVKAEEAEQPKTDYKKIGNPLPGMHIEADNEEEPEENDDDWDDDEDEAAQPPLPSRNVASGAPVQKEEPEQEEIAPSLPSRNSIPAPKQEEAPEQAPEEEIEEEAEEAAPQLPSRSSAAPPPPPRRATPEKKPKENPWAMAEYDYDAAEDNELTFVENDKIINIEFVDDDWWLGELEKDGSKGLFPSNYVSLGN [chain 1 T538M], the screen value is 0.283 DMS score: mean over two replicates of log2(f_test/f_ref + 0.5)/ln 2, minus the synonymous-codon median (not a log2 ….

Turning to chain 1 MALEPIDYTTHSREIDAEYLKIVRGSDPDTTWLIISPNAKKEYEPESTGSSFHDFLQLFDETKVQYGLARVSPPGSDVEKIIIIGWCPDSAPLKTRASFAANFAAVANNLFKGYHVQVTARDEDDLDENELLMKISNAAGARYSIQTSSKQQGKASTPPVKKSFTPSKSPAPVSKKEPVKTPSPAPAAKISSRVNDNNDDDDWNEPELKERDFDQAPLKPNQSSYKPIGKIDLQKVIAEEKAKEDPRLVQKPTAAGSKIDPSSDIANLKNESKLKRDSEFNSFLGTTKPPSMTESSLKNDDDKVIKGFRNEKSPAQLWAERKAKQNSGNAETKAEAPKPEVPEDEPEGEPDVKDLKSKFEGLAASEKEEEEMENKFAPPPKKSEPTIISPKPFSKPQEPVKAEEAEQPKTDYKKIGNPLPGMHIEADNEEEPEENDDDWDDDEDEAAQPPLPSRNVASGAPVQKEEPEQEEIAPSLPSRNSIPAPKQEEAPEQAPEEEIEEEAEEAAPQLPSRSSAAPPPPPRRATPEKKPKENPWATAEYDYDAAEDNELAFVENDKIINIEFVDDDWWLGELEKDGSKGLFPSNYVSLGN [chain 1 T552A], the screen value is -0.173 DMS score: mean over two replicates of log2(f_test/f_ref + 0.5)/ln 2, minus the synonymous-codon median (not a log2 ….

Consider chain 1 MALEPIDYTTHSREIDAEYLKIVRGSDPDTTWLIISPNAKKEYEPESTGSSFHDFLQLFDETKVQYGLARVSPPGSDVEKIIIIGWCPDSAPLKTRASFAANFAAVANNLFKGYHVQVTARDEDDLDENELLMKISNAAGARYSIQTSSKQQGKASTPPVKKSFTPSKSPAPVSKKEPVKTPSPAPAAKISSRVNDNNDDDDWNEPELKERDFDQAPLKPNQSSYKPIGKIDLQKVIAEEKAKEDPRLVQKPTAAGSKIDPSSDIANLKNESKLKRDSEFNSFLGTTKPPSMTESSLKNDDDKVIKGFRNEKSPAQLWAERKAKQNSGNAETKAEAPKPEVPEDEPEGEPDVKDLKSKFEGLAASEKEEEEMENKFAPPPKKSEPTIISPKPFSKPQEPVKAEEAEQPKTDYKKIGNPLPGMHIEADNEEEPEENDDDWDDDEDEAAQPPLPSRNVASGAPVQKEEPEQEEIAPSLPSRNSIPAPKQEEAPEQAPEEEIEEEAEEAAPQLPSRSSAAPPPPPRRATPEKKPKENPWATAEYDYDAAEDNELTFVENDKIINIEFVADDWWLGELEKDGSKGLFPSNYVSLGN [chain 1 D566A], for which the screen value is -2.64 DMS score: mean over two replicates of log2(f_test/f_ref + 0.5)/ln 2, minus the synonymous-codon median (not a log2 ….

chain 1 MALEPIDYTTHSREIDAEYLKIVRGSDPDTTWLIISPNAKKEYEPESTGSSFHDFLQLFDETKVQYGLARVSPPGSDVEKIIIIGWCPDSAPLKTRASFAANFAAVANNLFKGYHVQVTARDEDDLDENELLMKISNAAGARYSIQTSSKQQGKASTPPVKKSFTPSKSPAPVSKKEPVKTPSPAPAAKISSRVNDNNDDDDWNEPELKERDFDQAPLKPNQSSYKPIGKIDLQKVIAEEKAKEDPRLVQKPTAAGSKIDPSSDIANLKNESKLKRDSEFNSFLGTTKPPSMTESSLKNDDDKVIKGFRNEKSPAQLWAERKAKQNSGNAETKAEAPKPEVPEDEPEGEPDVKDLKSKFEGLAASEKEEEEMENKFAPPPKKSEPTIISPKPFSKPQEPVKAEEAEQPKTDYKKIGNPLPGMHIEADNEEEPEENDDDWDDDEDEAAQPPLPSRNVASGAPVQKEEPEQEEIAPSLPSRNSIPAPKQEEAPEQAPEEEIEEEAEEAAPQLPSRSSAAPPPPPRRATPEKKPKENPWATAEYDYDAAEDNELTFVENDKIINIEFVDDDWWLGELEHDGSKGLFPSNYVSLGN [chain 1 K576H]: the screen value was -0.301 DMS score: mean over two replicates of log2(f_test/f_ref + 0.5)/ln 2, minus the synonymous-codon median (not a log2 ….

Take chain 1 MALEPIDYTTHSREIDAEYLKIVRGSDPDTTWLIISPNAKKEYEPESTGSSFHDFLQLFDETKVQYGLARVSPPGSDVEKIIIIGWCPDSAPLKTRASFAANFAAVANNLFKGYHVQVTARDEDDLDENELLMKISNAAGARYSIQTSSKQQGKASTPPVKKSFTPSKSPAPVSKKEPVKTPSPAPAAKISSRVNDNNDDDDWNEPELKERDFDQAPLKPNQSSYKPIGKIDLQKVIAEEKAKEDPRLVQKPTAAGSKIDPSSDIANLKNESKLKRDSEFNSFLGTTKPPSMTESSLKNDDDKVIKGFRNEKSPAQLWAERKAKQNSGNAETKAEAPKPEVPEDEPEGEPDVKDLKSKFEGLAASEKEEEEMENKFAPPPKKSEPTIISPKPFSKPQEPVKAEEAEQPKTDYKKIGNPLPGMHIEADNEEEPEENDDDWDDDEDEAAQPPLPSRNVASGAPVQKEEPEQEEIAPSLPSRNSIPAPKQEEAPEQAPEEEIEEEAEEAAPQLPSRSSAAPPPPPRRATPEKKPKENPWATAEYDYDAAEDNELTFIENDKIINIEFVDDDWWLGELEKDGSKGLFPSNYVSLGN [chain 1 V554I]: the screen value is -0.0296 DMS score: mean over two replicates of log2(f_test/f_ref + 0.5)/ln 2, minus the synonymous-codon median (not a log2 ….
